The supplement of paper PMC5998384

Key:
HeLa Kyoto [1] = assay: solubility change mitosis vs G1/S (difference of NP-40 vs SDS log2 ratios) (log2 ratio difference); higher = more soluble in mitosis
HeLa Kyoto [2] = assay: solubility in G1/S (NP-40 vs SDS abundance) (log2 ratio); higher = more soluble; details: cell cycle stage: G1/S
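Wherever solubility change mitosis vs G1/S (difference of NP-40 vs SDS log2 ratios) is given: synchronized HeLa Kyoto cells (double thymidine block for G1/S, nocodazole release for mitosis), protein amounts in NP-40 versus SDS lysates quantified by mass spectrometry, three biological replicates.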
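Wherever solubility in G1/S (NP-40 vs SDS abundance) is given: HeLa Kyoto cells arrested at G1/S by double thymidine block, proteins quantified by TMT10plex mass spectrometry in mild NP-40 versus SDS extracts, three biological replicates.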

| Sequence | solubility change mitosis (log2) (HeLa Kyoto [1]) | solubility in G1/S (log2) (HeLa Kyoto [2]) |
| --- | --- | --- |
| MGIQGLLQFIKEASEPIHVRKYKGQVVAVDTYCWLHKGAIACAEKLAKGEPTDRYVGFCMKFVNMLLSHGIKPILVFDGCTLPSKKEVERSRRERRQANLLKGKQLLREGKVSEARECFTRSINITHAMAHKVIKAARSQGVDCLVAPYEADAQLAYLNKAGIVQAIITEDSDLLAFGCKKVILKMDQFGNGLEIDQARLGMCRQLGDVFTEEKFRYMCILSGCDYLSSLRGIGLAKACKVLRLANNPDIVKVIKKIGHYLKMNITVPEDYINGFIRANNTFLYQLVFDPIKRKLIPLNAYEDDVDPETLSYAGQYVDDSIALQIALGNKDINTFEQIDDYNPDTAMPAHSRSHSWDDKTCQKSANVSSIWHRNYSPRPESGTVSDAPQLKENPSTVGVERVISTKGLNLPRKSSIVKRPRSAELSEDDLLSQYSLSFTKKTKKNSSEGNKSLSFSEVFVPDLVNGPTNKKSVSTPPRTRNKFATFLQRKNEESGAVVVPGTRSRFFCSSDSTDCVSNKVSIQPLDETAVTDKENNLHESEYGDQEGKRLVDTDVARNSSDDIPNNHIPGDHIPDKATVFTDEESYSFESSKFTRTISPPTLGTLRSCFSWSGGLGDFSRTPSPSPSTALQQFRRKSDSPTSLPENNMSDVSQLKSEESSDDESHPLREEACSSQSQESGEFSLQSSNASKLSQCSSKDSDSEESDCNIKLLDSQSDQTSKLRLSHFSKKDTPLRNKVPGLYKSSSADSLSTTKIKPLGPARASGLSKKPASIQKRKHHNAENKPGLQIKLNELWKNFGFKKDSEKLPPCKKPLSPVRDNIQLTPEAEEDIFNKPECGRVQRAIFQ [EXO1] | 0.136 | -0.442 |
| MGKVLSKIFGNKEMRILMLGLDAAGKTTILYKLKLGQSVTTIPTVGFNVETVTYKNVKFNVWDVGGQDKIRPLWRHYYTGTQGLIFVVDCADRDRIDEARQELHRIINDREMRDAIILIFANKQDLPDAMKPHEIQEKLGLTRIRDRNWYVQPSCATSGDGLYEGLTWLTSNYKS [ARF6] | 0.0647 | 0.0719 |
| MGLELYLDLLSQPCRAVYIFAKKNDIPFELRIVDLIKGQHLSDAFAQVNPLKKVPALKDGDFTLTESVAILLYLTRKYKVPDYWYPQDLQARARVDEYLAWQHTTLRRSCLRALWHKVMFPVFLGEPVSPQTLAATLAELDVTLQLLEDKFLQNKAFLTGPHISLADLVAITELMHPVGAGCQVFEGRPKLATWRQRVEAAVGEDLFQEAHEVILKAKDFPPADPTIKQKLMPWVLAMIR [GSTT1] | -0.295 | 0.038 |
| MGMKVPGKGESGPSALLTPPMSSSSRGPGAGARRRRTRCRRCRACVRTECGDCHFCRDMKKFGGPGRMKQSCLLRQCTAPVLPHTAVCLLCGEAGKEDTVEGEEEKFGLSLMECTICNEIVHPGCLKMGKAEGVINAEIPNCWECPRCTQEGRTSKDSGEGPGRRRADNGEEGASLGSGWKLTEEPPLPPPPPRRKGPLPAGPPPEDVPGPPKRKEREAGNEPPTPRKKVKGGRERHLKKVGGDACLLRGSDPGGPGLLPPRVLNPSQAFSSCHPGLPPENWEKPKPPLASAEGPAVPSPSPQREKLERFKRMCQLLERVPDTSSSSSDSDSDSDSSGTSLSEDEAPGEARNGRRPARGSSGEKENRGGRRAVRPGSGGPLLSWPLGPAPPPRPPQLERHVVRPPPRSPEPDTLPLAAGSDHPLPRAAWLRVFQHLGPRELCICMRVCRTWSRWCYDKRLWPRMDLSRRKSLTPPMLSGVVRRQPRALDLSWTGVSKKQLMWLLNRLQGLQELVLSGCSWLSVSALGSAPLPALRLLDLRWIEDVKDSQLRELLLPPPDTKPGQTESRGRLQGVAELRLAGLELTDASLRLLLRHAPQLSALDLSHCAHVGDPSVHLLTAPTSPLRETLVHLNLAGCHRLTDHCLPLFRRCPRLRRLDLRSCRQLSPEACARLAAAGPPGPFRCPEEKLLLKDS [FBXL19] | -0.126 | -0.317 |
| MGNLESAEGVPGEPPSVPLLLPPGKMPMPEPCELEERFALVLSSMNLPPDKARLLRQYDNEKKWDLICDQERFQVKNPPHTYIQKLQSFLDPSVTRKKFRRRVQESTKVLRELEISLRTNHIGWVREFLNDENKGLDVLVDYLSFAQCSVMFDFEGLESGDDGAFDKLRSWSRSIEDLQPPSALSAPFTNSLARSARQSVLRYSTLPGRRALKNSRLVSQKDDVHVCILCLRAIMNYQYGFNLVMSHPHAVNEIALSLNNKNPRTKALVLELLAAVCLVRGGHEIILAAFDNFKEVCKELHRFEKLMEYFRNEDSNIDFMVACMQFINIVVHSVEDMNFRVHLQYEFTKLGLEEFLQKSRHTESEKLQVQIQAYLDNVFDVGGLLEDAETKNVALEKVEELEEHVSHLTEKLLDLENENMMRVAELEKQLLQREKELESIKETYENTSHQVHTLRRLIKEKEEAFQRRCHLEPNVRGLESVDSEALARVGPAELSEGMPPSDLDLLAPAPPPEEVLPLPPPPAPPLPPPPPPLPDKCPPAPPLPGAAPSVVLTVGLSAIRIKKPIKTKFRLPVFNWTALKPNQISGTVFSELDDEKILEDLDLDKFEELFKTKAQGPALDLICSKNKTAQKAASKVTLLEANRAKNLAITLRKAGRSAEEICRAIHTFDLQTLPVDFVECLMRFLPTEAEVKLLRQYERERQPLEELAAEDRFMLLFSKVERLTQRMAGMAFLGNFQDNLQMLTPQLNAIIAASASVKSSQKLKQMLEIILALGNYMNSSKRGAVYGFKLQSLDLLLDTKSTDRKMTLLHFIALTVKEKYPDLANFWHELHFVEKAAAVSLENVLLDVKELGRGMELIRRECSIHDNSVLRNFLSTNEGKLDKLQRDAKTAEEAYNAVVRYFGESPKTTPPSVFFPVFVRFIRSYKEAEQENEARKKQEEVMREKQLAQEAKKLDAKTPSQRNKWQQQELIAELRRRQAKEHRPVYEGKDGTIEDIITVLKSVPFTARTAKRGSRFFCDAAHHDESNC [FMNL3] | 0.267 | -0.31 |
| MGRGLLRGLWPLHIVLWTRIASTIPPHVQKSVNNDMIVTDNNGAVKFPQLCKFCDVRFSTCDNQKSCMSNCSITSICEKPQEVCVAVWRKNDENITLETVCHDPKLPYHDFILEDAASPKCIMKEKKKPGETFFMCSCSSDECNDNIIFSEEYNTSNPDLLLVIFQVTGISLLPPLGVAISVIIIFYCYRVNRQQKLSSTWETGKTRKLMEFSEHCAIILEDDRSDISSTCANNINHNTELLPIELDTLVGKGRFAEVYKAKLKQNTSEQFETVAVKIFPYEEYASWKTEKDIFSDINLKHENILQFLTAEERKTELGKQYWLITAFHAKGNLQEYLTRHVISWEDLRKLGSSLARGIAHLHSDHTPCGRPKMPIVHRDLKSSNILVKNDLTCCLCDFGLSLRLDPTLSVDDLANSGQVGTARYMAPEVLESRMNLENVESFKQTDVYSMALVLWEMTSRCNAVGEVKDYEPPFGSKVREHPCVESMKDNVLRDRGRPEIPSFWLNHQGIQMVCETLTECWDHDPEARLTAQCVAERFSELEHLDRLSGRSCSEEKIPEDGSLNTTK [TGFBR2] | -0.067 | -0.228 |
| MGSLSGLRLAAGSCFRLCERDVSSSLRLTRSSDLKRINGFCTKPQESPGAPSRTYNRVPLHKPTDWQKKILIWSGRFKKEDEIPETVSLEMLDAAKNKMRVKISYLMIALTVVGCIFMVIEGKKAAQRHETLTSLNLEKKARLKEEAAMKAKTE [FAM162A] | 0.327 | 0.312 |
| MGVALRKLTQWTAAGHGTGILEITPLNEAILKEIIVFVESFIYKHPQEAKFVFVEPLEWNTSLAPSAFESGYVVSETTVKSEEVDKNGQPLLFLSVPQIKIRSFGQLSRLLLIAKTGKLKEAQACVEANRDPIVKILGSDYNTMKENSIALNILGKITRDDDPESEIKMKIAMLLKQLDLHLLNHSLKHISLEISLSPMTVKKDIELLKRFSGKGNQTVLESIEYTSDYEFSNGCRAPPWRQIRGEICYVLVKPHDGETLCITCSAGGVFLNGGKTDDEGDVNYERKGSIYKNLVTFLREKSPKFSENMSKLGISFSEDQQKEKDQLGKAPKKEEAAALRKDISGSDKRSLEKNQINFWRNQMTKRWEPSLNWKTTVNYKGKGSAKEIQEDKHTGKLEKPRPSVSHGRAQLLRKSAEKIEETVSDSSSESEEDEEPPDHRQEASADLPSEYWQIQKLVKYLKGGNQTATVIALCSMRDFSLAQETCQLAIRDVGGLEVLINLLETDEVKCKIGSLKILKEISHNPQIRQNIVDLGGLPIMVNILDSPHKSLKCLAAETIANVAKFKRARRVVRQHGGITKLVALLDCAHDSTKPAQSSLYEARDVEVARCGALALWSCSKSHTNKEAIRKAGGIPLLARLLKTSHENMLIPVVGTLQECASEENYRAAIKAERIIENLVKNLNSENEQLQEHCAMAIYQCAEDKETRDLVRLHGGLKPLASLLNNTDNKERLAAVTGAIWKCSISKENVTKFREYKAIETLVGLLTDQPEEVLVNVVGALGECCQERENRVIVRKCGGIQPLVNLLVGINQALLVNVTKAVGACAVEPESMMIIDRLDGVRLLWSLLKNPHPDVKASAAWALCPCIKNAKDAGEMVRSFVGGLELIVNLLKSDNKEVLASVCAAITNIAKDQENLAVITDHGVVPLLSKLANTNNNKLRHHLAEAISRCCMWGRNRVAFGEHKAVAPLVRYLKSNDTNVHRATAQALYQLSEDADNCITMHENGAVKLLLDMVGSPDQDLQEAAAGCISNIRRLALATEKARYT [ARMC4] | 0.00126 | 0.0866 |
| MHQTLCLNPESLKMSACSDFVEHIWKPGSCKNCFCLRSDHQLVAGPPQPRAGSLPPPPRLPPRPENCRLEDEGVNSSPYSKPTIAVKPTMMSSEASDVWTEANLSAEVSQVIWRRAPGKLPLPKQEDAPVVYLGSFRGVQKPAGPSTSPDGNSRCPPAYTMVGLHNLEPRGERNIAFHPVSFPEEKAVHKEKPSFPYQDRPSTQESFRQKLAAFAGTTSGCHQGPGPLRESLPSEDDSDQRCSPSGDSEGGEYCSILDCCPGSPVAKAASQTAGSRGRHGGRDCSPTCWEQGKCSGPAEQEKRGPSFPKECCSQGPTAHPSCLGPKKLSLTSEAAISSDGLSCGSGSGSGSGASSPFVPHLESDYCSLMKEPAPEKQQDPGCPGVTPSRCLGLTGEPQPPAHPREATQPEPIYAESTKRKKAAPVPSKSQAKIEHAAAAQGQGQVCTGNAWAQKAASGWGRDSPDPTPQVSATITVMAAHPEEDHRTIYLSSPDSAVGVQWPRGPVSQNSEVGEEETSAGQGLSSRESHAHSASESKPKERPAIPPKLSKSSPVGSPVSPSAGGPPVSPLADLSDGSSGGSSIGPQPPSQGPADPAPSCRTNGVAISDPSRCPQPAASSASEQRRPRFQAGTWSRQCRIEEEEEVEQELLSHSWGRETKNGPTDHSNSTTWHRLHPTDGSSGQNSKVGTGMSKSASFAFEFPKDRSGIETFSPPPPPPKSRHLLKMNKSSSDLEKVSQGSAESLSPSFRGVHVSFTTGSTDSLASDSRTCSDGGPSSELAHSPTNSGKKLFAPVPFPSGSTEDVSPSGPQQPPPLPQKKIVSRAASSPDGFFWTQGSPKPGTASPKLNLSHSETNVHDESHFSYSLSPGNRHHPVFSSSDPLEKAFKGSGHWLPAAGLAGNRGGCGSPGLQCKGAPSASSSQLSVSSQASTGSTQLQLHGLLSNISSKEGTYAKLGGLYTQSLARLVAKCEDLFMGGQKKELHFNENNWSLFKLTCNKPCCDSGDAIYYCATCSEDPGSTYAVKICKAPEPKTVSYCSPSVPVHFNIQQDCGHFVASVPSSMLSSPDAPKDPVPALPTHPPAQEQDCVVVITREVPHQTASDFVRDSAASHQAEPEAYERRVCFLLLQLCNGLEHLKEHGIIHRDLCLENLLLVHCTLQAGPGPAPAPAPAPAPAAAAPPCSSAAPPAGGTLSPAAGPASPEGPREKQLPRLIISNFLKAKQKPGGTPNLQQKKSQARLAPEIVSASQYRKFDEFQTGILIYELLHQPNPFEVRAQLRERDYRQEDLPPLPALSLYSPGLQQLAHLLLEADPIKRIRIGEAKRVLQCLLWGPRRELVQQPGTSEEALCGTLHNWIDMKRALMMMKFAEKAVDRRRGVELEDWLCCQYLASAEPGALLQSLKLLQLL [SGK223] | -0.132 | -0.249 |
